Source: patent US20090305339A1, “Polypeptides With Laccase Activity” (VIALACTIA BIOSCIENCES (NZ) LIMITED, priority 2006, published 2009)

Assays:
[1] = Electrochemical analysis of immobilized laccase in the presence of DMP; conditions: for electrochemical activity (current): DMP
Text: RL5 was immobilized on BAS glassy carbon electrodes (FIGS. 3B,D) or on gold electrodes (FIGS. 3A,C). Both materials provide different enzyme orientations:
(i) the carbon electrode presents hydroxyl groups on the surface, providing a laccase substrate-like structure, which makes the enzyme to immobilize preferably with the active site facing the electrode surface; and
(ii) gold provides high hydrophobic surface that avoids the contact between the high-hydrophilic density amino acid domain of the enzyme and the electrode, being the hydrophobic domains which preferably orient towards the gold surface.
Some differences in the electrochemical measurements were observed due to the different orientation of the enzyme on the electrode in the presence of substrate (DMP) (FIGS. 3A,B). Thus, when RL5 laccase was immobilized on gold (FIG. 3A), the activity in the presence of oxygen was of 0.38 microamperes (dashed line), whereas in the absence of oxygen it was of 0.69 microamperes (dotted line). Most likely, the enzyme is using approximately half of the electrons for the reduction of the substrate and the other half from the oxygen in the solution; however, in absence of oxygen, all the electrons are used from the electrode, giving a higher measurement value. When using the carbon electrode (FIG. 3B), the enzyme orients in such a way that the measure, in the presence of oxygen, was 2.8 microamperes (dashed line). This could be explained by the fact that 93% of the electrons are used from the electrode, either because of different enzyme orientations, or because the immobilization on carbon kept higher amount (approximately 7 times) of laccase active. In the carbon electrode the T2 copper oxidization potential site, +500 vs. normal hydrogen electrode (NHE) was determined.
The electrochemical measurements have been performed with BAS CV-50W voltammetric analyzer. For gold surface experiments, a gold BAS disc electrode has been used. The electrode was cleaned according to the following procedure: the electrode was firstly immersed in “piranha” solution, containing 1 part of hydrogen peroxide 33% v and 3 parts of sulphuric acid 98%, during 5 minutes, after which the electrode was rinsed thoroughly with milliQ water, and polished with Buehler® micropolish gamma alumina #3, 0.05 micron size, during 5 minutes, on a polishing cloth, further immersed into a milliQ water solution and exposed to ultrasounds for 15 minutes. Then, the electrode was cleaned with sulphuric acid oxidization cyclic voltammetry for 30 minutes. […] After 180 minutes from the first addition, the laccase-modified gold electrode was measured in 100 mM phosphate buffer (pH 6.0) in the presence of oxygen. […]

[2] = Electrochemical analysis of immobilized laccase in absence of substrate; conditions: for potential at which electro-reduction of oxygen begins: no substrate
Text: Electrochemical information on electrodes modified with RL5 laccase in absence of substrate was also obtained (FIGS. 3C,D). Again, we found some differences when the electrode material was gold or glassy carbon. Thus, the electro-reduction of oxygen begins in +250 mV when the electrode was gold (FIG. 3C), while it began at +500 mv when it was glassy carbon (FIG. 3D). We found additional information on the glassy carbon electrode compared with the gold electrode. Thus, when removing the oxygen from solution, the T1 copper site oxidization potential of 740 mV vs. NHE was registered. In addition, when a reactivation with oxygen was performed, the three oxidation potential peaks were registred: T1 of 745 mV vs. NHE was the highest; T3 site of 500 mV vs. NHE had two copper ions, so it is the one with a higher area; T2 site had 400 mV vs. NHE. The redox potential of T1 was registered to be in the range of fungal laccases (480-785 mV) (Solomon et al., 1996; Klonowska etal., 2002).
The electrochemical measurements have been performed with BAS CV-50W voltammetric analyzer. For gold surface experiments, a gold BAS disc electrode has been used. The electrode was cleaned according to the following procedure: the electrode was firstly immersed in “piranha” solution, containing 1 part of hydrogen peroxide 33% v and 3 parts of sulphuric acid 98%, during 5 minutes, after which the electrode was rinsed thoroughly with milliQ water, and polished with Buehler® micropolish gamma alumina #3, 0.05 micron size, during 5 minutes, on a polishing cloth, further immersed into a milliQ water solution and exposed to ultrasounds for 15 minutes. Then, the electrode was cleaned with sulphuric acid oxidization cyclic voltammetry for 30 minutes. The electrode was rinsed three times with milliQ water and polished again for another 5 minutes with the same alumina powder. After the subsequent sonication for 15 minutes, the electrode was finally inmersed into a reductive 0.5 M NaOH solution for 30 minutes and rinsed with milliQ water. The laccase enzyme was immobilized by dropping […] of the enzyme solution at a concentration of 5 mg/ml on the gold surface facing upward and covered to avoid evaporation. After 90 minutes, the second drop was added. After 180 minutes from the first addition, the laccase-modified gold electrode was measured in 100 mM phosphate buffer (pH 6.0) in the presence of oxygen. For measurements under anaerobic conditions, N2 was “bubbled” for 15 minutes into the electrochemical cell. The same procedure was repeated for measuring in presence of 2,6-dimethoxyphenol, used as a test substrate. The immobilization on the carbon electrode was performed on a BAS glassy carbon electrode. The electrode was polished on a graphite-polishing cloth for 5 minutes, until mirror-like surface was achieved. The electrode was rinsed thoroughly with water and, facing upwards, 20 μl of the laccase solution (5 mg/ml) were dropped on the classy carbon surface. The electrode was covered and let to immobilize for 20 minutes. All electrochemical measurements performed for the gold electrode are repeated for this electrode.

[3] = Laccase activity, 1-HBT as substrate; format: biochemical
[4] = Decolorization of Poly R-478; format: biochemical; conditions: Poly R-478 0.025%, pH 4.5, room temperature, 0.2 units enzyme, 3500 min
Procedure: Decolorization of Poly-R 478 (0.025 w/v) in the presence or absence of HOBt (1-Hydroxybenzotriazole) (0.9 mM) was determined spectrophotometrically (520 nm) at room temperature in 100 mM sodium phosphate buffer pH 4.5.

[5] = Oxidation of anthracene (HPLC, GC-MS/MS); format: biochemical; conditions: 50 μM anthracene, HOBt, pH 4.5, overnight, room temperature
Procedure: Procedures for cloning, expression and purification of laccase are described in the reference: Beloqui, A., et al. (2006), which is made part of the disclosure of the present application.
HPLC conditions: the HPLC (Varian 9012) was provided with an automatic injector (Autosampler L2200, VWR Hitachi). 10 μL of sample reaction were injected to a C18 Nucleosil 3 μm, 80×4 mm, column (AV-2486, Analisis Vinicos S. A.). The mobile phase consisted of acetonitrile:water 70:30 (v/v) and the flow rate was controlled at 1 mL/min. A PhotoDiode Array Detector (Prostar 335, Varian) with the UV lamp fixed to 251 nm was used to detect the eluted compounds.

[6] = Laccase activity, 3,4-dimetoxybenzyl alcohol as substrate; format: biochemical
Procedure: Laccase activity was determined spectrophotometrically in a thermostated spectrophotometer (Perkin-Elmer) at 40° C. in 100 mM sodium citrate buffer, pH 4.5 (1 ml). The standard assay was performed at 530 nm, using SGZ as the oxidation substrate (ε530=64,000 M^−1cm^−1). The reaction was started by adding SGZ, from a stock solution in methanol, to a final concentration of 20 μM. […] Oxidation of phenol red (75 μM) was determined by the decrease in absorbance at 432 nm. The activity:pH and activity:temperature relationships were determined by incubating the enzyme:substrate mixtures at different pH values and constant temperature (40° C.), and at different temperatures (15-80° C.) and constant pH (4.5), respectively. Catalytic constants were derived by fitting the experimental data onto the Michaelis-Menten model. Control measurements without enzyme were carried out to correct for possible chemical oxidation of the substrates.

[7] = glassy carbon, after reactivation with oxygen, vs. NHE

electrochemical activity (current) ([1]; carbon electrode, presence of oxygen): 2.8 microamperes
electrochemical activity (current) ([1]; gold electrode, absence of oxygen): 0.69 microamperes
electrochemical activity (current) ([1]; gold electrode, presence of oxygen): 0.38 microamperes
substrate of the laccase [3]: not substrates
B1: RL5: polypeptide with laccase activity from bovine rumen metagenome library, amino acid sequence of FIG. 11 (protein)
chain: MIELEKLDFAKSVEGVEAFSTTRGQVDGRNAYSGVNLCDYVGDDALRVLDARLTLAMQLGVDLDDLVMPRQTHSCRVAVIDERFRALDIDEQEAALEGVDALVTRLQGIVIGVNTADCVPIVLVDSQAGIVAVSHAGWRGTVGRIAKAVVEEMCRQGATVDRIQAAMGPSICQDCFEVGDEVVEAFKKAHFNLNDIVVRNPATGKAHIDLRAANRAVLVAAGVPAANIVESQHCSRCEHTSFFSARRLGINSGRTFTGIYRK
modifications: Description of sequence Amino acid sequence of RL5 laccase 3217 to 2414 frame 1 - 262 amino acids (see Figure 11)
T2 copper oxidization potential site ([1]; carbon electrode, vs. normal hydrogen electrode (NHE)): +500
potential at which electro-reduction of oxygen begins ([2]; glassy carbon electrode): +500 mv
T1 oxidation potential [2, 7]: 745 mV
T2 site oxidation potential [2, 7]: 400 mV
T3 site oxidation potential [2, 7]: 500 mV
T1 copper site oxidization potential ([2]; glassy carbon, oxygen removed from solution, vs. NHE): 740 mV
potential at which electro-reduction of oxygen begins ([2]; gold electrode): +250 mV
Poly R-478 solution oxidized [4]: more than 70%
oxidation of anthracene [5]: efficiently oxidize anthracene to 9,10-antraquinone
substrate of the laccase [6]: not substrates
